Source: the DeepSol protein solubility set

Assay: soluble on expression in E. coli; label from the status in PepcDB or PDB records

Sequence | soluble on expression in E. coli
MSLTATTDGSTGASLRPLAASASDTDITIPAAAAGVPEAAARATRRATDFLLAKQDAEGWWKGDLETNVTMDAEDLLLRQFLGIQDEETTRAAALFIRGEQREDGTWATFYGGPGELSTTIEAYVALRLAGDSPEAPHMARAAEWIRSRGGIASARVFTRIWLALFGWWKWDDLPELPPELIYFPTWVPLNIYDFGCWARQTIVPLTIVSAKRPVRPAPFPLDELHTDPARPNPPRPLAPVASWDGAFQRIDKALHAYRKVAPRRLRRAAMNSAARWIIERQENDGCWGGIQPPAVYSVIALYLLGYDLEHPVMRAGLESLDRFAVWREDGARMIEACQSPVWDTCLATIALADAGVPEDHPQLVKASDWMLGEQIVRPGDWSVKRPGLPPGGWAFEFHNDNYPDIDDTAEVVLALRRVRHHDPERVEKAIGRGVRWNLGMQSKNGAWGAFDVDNTSAFPNRLPFCDFGEVIDPPSADVTAHVVEMLAVEGLAHDPRTRRGIQWLLDAQETDGSWFGRWGVNYVYGTGSVIPALTAAGLPTSHPAIRRAVRWLESVQNEDGGWGEDLRSYRYVREWSGRGASTASQTGWALMALLAAGERDSKAVERGVAWLAATQREDGSWDEPYFTGTGFPWDFSINYNLYRQVFPLTALGRYVHGEPFAKKPRAADAPAEAAPAEVKGSEGHHHHHH | soluble
MSLKKKTTLSEEDQALFRQLMAGTRKIKQDTIVHRPQRKKISEVPVKRLIQEQADASHYFSDEFQPLLNTEGPVKYVRPDVSHFEAKKLRRGDYSPELFLDLHGLTQLQAKQELGALIAACRREHVFCACVMHGHGKHILKQQTPLWLAQHPHVMAFHQAPKEYGGDAALLVLIEVEEWLPPEGHHHHHH | soluble
MSVVISGALTDGAGIPMSGYHIILKSRVNTPEVVMNTVADVMTGNDGEYCFHARTGKYGVYLKQDWRNEYNVGDIAVYEDSKPGTLNDFLIAPDEGDLKPDVVKRFEEMVAQAQQSAGAAAGNAQQTAQDVAAAAGYARAAEQAKNDIDAALTGTLKTANHLSETAAAGEKAQQKSRDNLGLKSAATMEAQSDIYDRTKGRLAIPGAFGFGCAFLPEDVIRFDTKSDFLAWVRNALPGEYSVAGPYGIIIPDTRFEGVLSIRWTDARPETTEPRYRAKSLTFYGINGPIYHTRYRYWPISRLTDWVKINITTEDIIYRIVASSVRNRWGDPDIGGLIIAAYQGEADGDKVIRLVRGQSYRGSRLGPVGISVPSTPTGTYIASPQFFITGCSEHSLPGSYCALSGVPDAHVSGAMPGLFIRTS | not soluble
TGSGELLLTSPKGSLTLFAYPGKPSLVTVSDFSAGLLDGTVAVNHMDYDLKSKHTETLVQLNGIPIQSLLDLQGASKLSATGTIRGAIPVVLDNNLFSIPEGRMDAEKNGLIIYASTPEERAAAGAGMRLTYEALGNFFYSELVSNIVMTPDGNSTISIQLKGRNPDFQNNRPVNLNLNIQQNLLDLFRSLTLSSDIEEAISKKVLENSGG | not soluble
VACMIPAPAYHPDPRFQALGGEFADPVEPADFPETVLRFRNDRAAATVGLETLDDRAWLRHFGRFEPLPDNQTRPLAMRYHGHQFRVYNPDLGDGRGFLFGQLREAGTGRLLDLATKGSGQTPWSRAGDGRLTLKGGVREILAASFLEALGVPTSRWCGL | soluble
MGSDKIHHHHHHMKSRFYRPLSLASVSPSYFPEIALYVRNSGNYILYKNHDRQFTEEDRHRLERTNTSFLYVRSGDMDAVTEYLEQNLDTLLARDDIDSNAKGTILYQTAANYVTDVFDEPGKTADIIRCRSLIRHLMKYVAGHEDALKALQAITSQNYYIFTHSVQVAALMMLVHDRLFRLNQDEMIDVGIGSLLHDVGMVFLSGQLLDKPDALAAIEYHKAKQHAQKGYEHLQSAGTLSEVSLTIVRHHHEKYDGSGYPAGLKGDDIPRSAQLAALCDTYCAMTTDRPKHTALPGAEALRIMEDEVGGAFSPDLFYRFADVVKGKGKA | not soluble
MTAAEHGLHAPAYAWSHNGPFETFDHASIRRGYQVYREVCAACHSLDRVAWRTLVGVSHTNEEVRNMAEEFEYDDEPDEQGNPKKRPGKLSDYIPGPYPNEQAARAANQGALPPDLSLIVKARHGGCDYIFSLLTGYPDEPPAGVALPPGSNYNPYFPGGSIAMARVLFDDMVEYEDGTPATTSQMAKDVTTFLNWCAEPEHDERKRLGLKTVIILSSLYLLSIWVKKFKWAGIKTRKFVFNPPKPRK | soluble
MSLTPMFKTPVVMTIAGSDSGGGAGIAADIKTFAAFGVHGTCAITSVTAQNTTGVLETFDLAPEAVASQIEAVCTDMDVKWAKTGMLASSEIIKEVAKQVKKHNLSLVLDPVMAAEAGGDLLKKEALSVLIKELLPLCKVTTPNASEAGALAGVTVKTHEDAKLAARKIADLGVESVIVTGGHIDATDLLYEPVSGTFTRIPGTFVKGGTHGSGCTYSASMAACLARGDSTETAARKAKTFVEQAILRSVPVGKGVGPVNPLANTLEEKERYLALQDVKEAVSILTYSPDFAKLIPEVGCNIGMAIPCARTYNEIAAVEGRIIRFREKAIPVGYVNFGASQHVARVILAALRENPEMRAAMNVKYSEEILEACREINPGISSFDRAEDPGDASTMEWGTSEAIRKYGGMPEVIYDKGAIGKEPMVRLLGKSASEVAKLAVELARRVKEGHHHHHH | soluble
MTFYFYFVINMEKVAIYIIGDIVLAENTGKALKKWRNLFNIQQIELAKYLNVSPSVISDYEVGRRKNPGVNIIKKYVLALIEIDKEKGGQTIKALKRILDKSPSMKAILSIKEYENPITLNEFVNIIDGEIAVGDNSDTPIYGHTVVDSIKAILEMTGDDFYHLYGWTTERALIFTNVSTGRSPMVAVRVSIMKPRVVVLQGINKDKIDSLALKLAEIDNIPLITTHLDTKELIKRLNEIK | not soluble
MLSVIIITKNEEANIRRCLESVHFADEIIVLDSGSTDNTLAIAREYTDKVFSTDWQGYGIQKDRALQKAQGDWVLNLDADESVSSELRQEILQAISSDTADAFRIPIQMIFYNQVLKYSGSPKRHIRLFKRENASYSKDIVHEKVLIPVNARVGKLKKPIWHHSFSDVHHVLYKLNKYSSYSAKIRIESNEKVGLVKTFFSALWMFVRCLFLQKGFLDGRAGFLFAVFGAQGAFYRGVKQIYKDRDINKLPSVNHIKEELEHHHHHH | soluble
KVQKIIVSEAGASVYSASELAAKEFPNMDVSLRGAVSIARRLQDPLAELVKIDPKSIGVGQYQHDVSQSMLVKRLDAIVEDCVNAVGVDVNTASAALLTRVAGLSSTIAQNIVDFRDENGRFEARTTLKKVPRLGPKAFEQCAGFLRIMDGKNPLDASAVHPEAYPVVKAIAEKNRKDIKALIGDSTFLKGLHAVDYTDEHFG | not soluble
IGIVNDMPLAVEALRRALAFEPQHQIVWVASNGAEAVTQCAADTPDVVLMDLLMPVMDGVEATRRIMAESPCAIVIVTVDIEQNVHRVFEAMGYGALDAVNTPALGIGNPQTAAAPLLRKIQNVGWLIGQRDNRGKVQVVPPKAGGARQRLVAIGASAGGPASLAVLLKQLPASFNAAVVLVQHVDEVFAAGMAEWLASESKLPVRLARDGEPPIPGQILLAGTNNHIRLLRNGSLVYTAEPRSFVYRPSIDVFFESVANYWRGDAVGVLLTGMGRDGAQGLKQMRERGFLTIAQDQASCAVYGMPKAAAAIDAAVQILSLEKIA | not soluble
MGSDKIHHHHHHMLDPRSVPFAAQIHPQARPARRLTWDSREAGPDTAFVALPGEKMHGNRFVERALAAGAPFVLTDLDVPRAVRVDDARGALFAWARSERAKNPLVVGITGSAGKTTAKSYAAAALDAHFMPVFNTMPAIACFLVQYGASQKPLVVEMGIDHIGEMAELMDLVRPDVGVVTTIGPAHLEQFGMVETIAHEKGQILTARRALVGSQAAAFFPKAQFPHVDSYGFGDVTFRGEGLELSPQAARFRFGGMGVILPLASRVQAEAAVLGMVLAREAGIALADAAVRMSAVEVPGGRYRLHPGRFTVIDDAYNASPVAVRAALDALHALKPEGEVGRRISVLGRMLELGPTERELHAEVGSYAREQADLTYGVGEFAQELGERAFATVPELLADLLNEVRDGDIVLVKASRGISLTPEQRAVTGVGLDVVVEALLDQRDR | not soluble
